US20130330359A1 (AbbVie / Abbott, published 2013)
Blank lines part the entries; values can stand above or below the binder they belong to.

Tests used:
[1] = biological target: T1, carrier free RGMc (R&D Systems) (human, UniProt Q6ZVN8 36-400); experiment: … two-step sandwich chemiluminescent assay; 1A-2493-121 on microparticles as capture, goat polyclonal AF3720 conjugate as detection
T1 construct: also called RGMc-CF
T1 sequence (looked up): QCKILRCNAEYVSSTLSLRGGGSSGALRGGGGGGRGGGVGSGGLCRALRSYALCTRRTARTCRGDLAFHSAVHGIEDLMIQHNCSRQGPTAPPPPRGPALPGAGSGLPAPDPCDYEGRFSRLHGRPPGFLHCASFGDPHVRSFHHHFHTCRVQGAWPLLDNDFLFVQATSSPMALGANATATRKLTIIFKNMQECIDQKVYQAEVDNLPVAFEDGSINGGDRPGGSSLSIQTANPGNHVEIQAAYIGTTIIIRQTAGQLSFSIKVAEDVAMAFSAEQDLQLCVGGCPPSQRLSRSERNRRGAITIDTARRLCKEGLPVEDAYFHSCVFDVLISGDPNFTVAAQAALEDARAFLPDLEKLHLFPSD

[2] = biological target: T2, RGMc antigen: amino acids 33-391 of RGMc followed by human Fc (human, UniProt Q6ZVN8 33-391); experiment: … two-step sandwich chemiluminescent assay; 1A-2493-121 on microparticles as capture, goat polyclonal AF3720 CPSP conjugate as detection
T2 construct: also called RGMc-huFc; RGMc-Fc; not shown: human Fc
T2 sequence: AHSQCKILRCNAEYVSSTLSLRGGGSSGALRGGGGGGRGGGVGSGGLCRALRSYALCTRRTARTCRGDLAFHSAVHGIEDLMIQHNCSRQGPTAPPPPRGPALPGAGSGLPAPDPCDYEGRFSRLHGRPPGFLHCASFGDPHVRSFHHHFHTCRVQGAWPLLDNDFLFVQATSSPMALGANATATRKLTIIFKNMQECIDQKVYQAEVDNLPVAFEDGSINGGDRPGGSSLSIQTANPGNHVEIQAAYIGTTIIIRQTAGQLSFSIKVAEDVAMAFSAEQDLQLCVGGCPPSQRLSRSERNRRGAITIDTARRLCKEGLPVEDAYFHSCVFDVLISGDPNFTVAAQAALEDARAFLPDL
Experimental: The Architect assay is a two-step assay format, wherein a 30 μl sample is mixed with 50 μl of line diluent. […] At the end of 18 minutes, unbound sample is washed away. 50 μl of R&D System Goat polyclonal AF3720 CPSP conjugate at 800 ng/mL was added to the mixture, vortexed, and incubated for 4 minutes. […] The relative light units are then measured.

[3] = biological target: T3, carrier free RGMb (R&D Systems) (UniProt Q6NW40 46-413, limits assumed); experiment: EIA on coated carrier-free RGMb (summary of specificity)
T3 construct: also called RGMb-CF
T3 sequence (looked up): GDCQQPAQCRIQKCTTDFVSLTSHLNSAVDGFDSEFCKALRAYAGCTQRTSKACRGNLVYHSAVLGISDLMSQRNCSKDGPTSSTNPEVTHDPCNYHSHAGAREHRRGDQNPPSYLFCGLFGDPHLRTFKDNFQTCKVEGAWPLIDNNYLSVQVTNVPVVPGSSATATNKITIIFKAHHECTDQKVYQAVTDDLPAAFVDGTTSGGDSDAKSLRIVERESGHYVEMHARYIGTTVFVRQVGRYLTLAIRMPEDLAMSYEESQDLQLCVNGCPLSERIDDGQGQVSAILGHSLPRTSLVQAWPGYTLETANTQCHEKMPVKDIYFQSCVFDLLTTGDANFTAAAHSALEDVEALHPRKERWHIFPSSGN
Experimental: (§1) Clones were then tested for cross-reactivity with RGMa and RGMb by EIA. Carrier free RGMa, RGMb, or RGMc (R&D Systems) was coated on the solid phase of micro-titer EIA plates at 0.5 ug/mL. After the antigen had been coated on the solid phase, it was removed and any open binding sites on the plates were blocked using fish gel block solution. The wells were washed with distilled water following this incubation. Cell supernatants and control reagents were added to the blocked plates and allowed to incubate at room temperature for at least one hour. The negative control was a purified mouse mAb from a different antigen system. The positive control for RGMa, RGMb, & RGMc was a goat anti-RGMa, RGMb, or RGMc polyclonal antibody (R&D Systems). Following this incubation, the solutions were removed from the plates and they were washed with distilled water. Donkey anti-Goat IgG-HRPO diluted to approximately 200 ng/mL in block solution was added to the plates with the positive control test samples and goat anti-mouse IgG-HRPO (Jackson Immunoresearch) diluted to approximately 200 ng/mL in block solution was added to the plates with the fusion #1 test samples. All plates were allowed to incubate for 30 minutes at room temperature. The plates were washed with distilled water and o-phenylenediamine substrate was used as the chromogen to generate signal. Plates were read at 492 nm and the results were analyzed.

[4] = biological target: T2, RGMc antigen: amino acids 33-391 of …; experiment: chemiluminescence immunoassay: supernatant mAb captured on sheep anti-mouse IgG Fc, RGMc-huFc at 200 ng/mL, acridinium-labeled goat anti-RGMc detection
Experimental: Cell supernatant samples were analyzed for anti-RGMc antibodies by Chemiluminescence immunoassay (CIA). Sheep anti-mouse IgG Fc (Jackson Immunoresearch, West Grove, Pa.) was coated on 96 well micro-titer CIA plates (NUNC) at 5 ug/mL. After the capture reagent had been coated on the solid phase, it was removed and any open binding sites on the plates were blocked using a Fish gel/PBS (2% v/v) block solution. The wells were washed with distilled water and cell supernatants were added to the blocked plates and allowed to incubate at room temperature for at least one hour. The anti-mouse IgG Fc captures the anti-RGMc mouse antibody from the supernatant. Following the incubation, the supernatants were washed off using distilled water. A mouse/human IgG chimeric antibody (Abbott Laboratories) diluted in fish gel block to 5 ug/ml was added to each well and incubated for approximately 30 minutes at room temperature to block any captured mAbs that are specific for human IgG Fc portion of the immunogen. Following the incubation, the human IgG blocking solution was washed off using distilled water. RGMc-huFc antigen was then added to the plates at 200 ng/mL in fish gel block and incubated for 30 minutes at room temperature. Following this incubation, the antigen was washed from the plates using distilled water. Acridinium labeled goat anti-RGMc polyclonal antibody (R&D Systems, Minneapolis, Minn.) was diluted to 200 ng/ml in fish gel block, then added to the plates and allowed to incubate for 30 minutes at room temperature. The plates were washed with distilled water then processed on the Microbeta Jet instrument (Perkin Elmer, Waltham, Mass.). The Microbeta Jet adds Architect© Pre-Trigger and Trigger solutions (Abbott Laboratories). The plates are then read for flash chemiluminescence in luminescent counts per second (LCPS). […] The positive control (PC) used in this assay was spent medium from unfused splenocytes harvested from mouse #814 that were cultured for 7 to 10 days at 37° C.

[5] = biological target: T4, carrier free RGMa (R&D Systems) (UniProt Q96B86 48-422, limits assumed); experiment: EIA on coated carrier-free RGMa (summary of specificity)
T4 construct: also called RGMa-CF
T4 sequence (looked up): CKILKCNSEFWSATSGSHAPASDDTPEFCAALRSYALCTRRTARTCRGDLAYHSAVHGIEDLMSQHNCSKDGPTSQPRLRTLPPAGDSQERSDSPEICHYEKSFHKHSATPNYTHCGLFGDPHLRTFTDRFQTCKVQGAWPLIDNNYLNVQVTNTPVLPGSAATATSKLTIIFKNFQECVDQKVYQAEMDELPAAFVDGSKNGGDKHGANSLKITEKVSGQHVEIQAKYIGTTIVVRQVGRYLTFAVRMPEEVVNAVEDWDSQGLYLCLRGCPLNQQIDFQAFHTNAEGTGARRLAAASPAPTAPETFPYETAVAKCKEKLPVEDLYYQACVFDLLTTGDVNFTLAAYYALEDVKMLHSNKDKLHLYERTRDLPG
Experimental: as §1

[6] = biological target: T5, mouse:human chimeric antibody (used as human IgG / human IgG Fc antigen); experiment: direct EIA: mouse:human chimeric antibody coated at 1.0 ug/mL; supernatant diluted 1:125; goat anti-mouse IgG Fc-HRPO
T5 construct: also called Hu IgG; human IgG Fc portion
Experimental: (§2) A mouse:human chimeric antibody or RGMc-huFc was coated on the solid phase of micro-titer EIA plates at 1.0 ug/mL. After the antigen had been coated on the solid phase, it was removed and any open binding sites on the plates were blocked using BSA block solution. The wells were washed with distilled water. Cell supernatants and control reagents were added to the blocked plates and allowed to incubate at room temperature for at least one hour. The negative control was a purified mAb from a different antigen system. The positive control for human IgG was a purified anti-hu IgG mAb developed against another antigen containing human IgG Fc carrier protein. The RGMc positive control is Novus mab 1C12. Following this incubation, the solutions were removed from the plates and they were washed with distilled water. Goat anti-mouse IgG Fc-HRPO (Jackson Immunoresearch) diluted to approximately 200 ng/mL in block solution was added to the plates and allowed to incubate for 30 minutes at room temperature. The plates were washed with distilled water and o-phenylenediamine substrate (Abbott Laboratories) was used as the chromogen to generate signal. Plates were read at 492 nm and the results were analyzed.

[7] = biological target: T2, RGMc antigen: amino acids 33-391 of …; experiment: direct EIA: RGMc-huFc coated at 1.0 ug/mL; supernatant diluted 1:125; goat anti-mouse IgG Fc-HRPO
Experimental: as §2

- binding result [1]: binds
- binding result [2]: binds
B1: anti-RGMc 1A-2493-121 monoclonal antibody (antibody, V domains shown)
VH: DVQLQASGPDLVKPSQSLSLTCTVTGYSITSGYSWHWIRQFPGNKLEWMAYIHYTGDSNYNPSLKSRISITRDTSKNQFFLQLTSVTTEDTATYYCALFGLSGYWGQGTLVTVSA
VL: DVLMTQTPLSLPVSLGDQASISCRSSQNIIHSNGNTYLDWYLQKPGQSPKVLIYKVSNRFSGVPDRFSGSGSGTDFILKISRVEAEDLGVYYCLQGSHVPWTFGGGTKLEIKR

- binding result [3]: no binding
- LCPS [4]: 2640 LCPS
- binding result [5]: no binding
B2: 1A-2258-107 (antibody, V domains shown)
VH: EVQLVESGGGLVKPGGSLKLSCAASGFTFSDYFMFWVRQTPEKRLEWVATISDGGSYTYYSDSVKGRFTISRDNAKNNLFLQMSSLKSEDTAMYYCARDKYGDYDAMDYWGQGTSVTVSS
VL: DVVLTQSPASLAVSLGQRATISCKASQSVDYDSDSYMNWYQQKPGQPPKLLIYAASNLESGIPARFSGGGSGTDFTLNIHPVEEEDAATYYCQQSNEDPPTFGGGTKLEIKR

- absorbance at 492 nm [6]: 0.07
- binding result [3]: no binding
- absorbance at 492 nm [7]: 1.25
- LCPS [4]: 4390 LCPS
- binding result [5]: no binding
B3: 1A-2151-163 (antibody, V domains shown)
VH: EVQLQQSGPELLKPGASVKISCKASGYSFTDNTIHWVKQSQRKSLEWIGGISPRYGDIRYNVQFKDKATLTVDKSSSTAYMELRSLTSEDSAVYYCTRWDDGYYEDYAMDYWGQGTSVTVSS
VL: DILLTQSPAILSVSPGERVSFSCRASQSIGTSLHWYQQRRNGSPRLLIKYASESISGIPSRFSGSGSGTDFTLSINTVESEDIADYYCQQSNSWPYTFGGGTKLEIKR
